This is an account of results in publication PMC3378870 (Nucleic Acids Research, 2012).

Sequences and labels used below:
B1: VapC toxin of Salmonella enterica serovar Typhimurium LT2 (enzyme)
chain: MLKFMLDTNTCIFTIKNKPEHIRERFNLNTSRMCISSITLMELIYGAEKSLAPERNLAVVEGFISRLEVLDYDTQAAIHTGQIRAELARKGTPVGPYDQMIAGHAGSRGLVVVTNNLREFERIPGIRIEDWC

Series [1] concerns the molecule itself.
Series [2] concerns the target B1. The experiment in a line: native gel or EMSA.
The target in series [3] is T1, VapC Y72A variant (Salmonella enterica serovar Typhimurium …, UniProt Q8ZM86 1-132, Y72A).
T1 sequence: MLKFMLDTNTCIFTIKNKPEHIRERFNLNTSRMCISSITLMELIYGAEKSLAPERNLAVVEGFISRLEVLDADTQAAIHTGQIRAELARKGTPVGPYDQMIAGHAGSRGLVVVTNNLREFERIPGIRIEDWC
The series is described as follows: native gel or EMSA.

In series [4] the target is T2, VapC L43A variant (Salmonella enterica serovar Typhimurium …, UniProt Q8ZM86 1-132, L43A).
T2 sequence: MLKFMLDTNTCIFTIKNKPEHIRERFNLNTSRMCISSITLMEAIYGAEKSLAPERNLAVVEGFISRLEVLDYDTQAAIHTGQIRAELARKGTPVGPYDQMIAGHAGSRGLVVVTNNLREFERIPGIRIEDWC
The experiment in a line: native gel or EMSA. On the technique in general: Mobility shift assays separate free from complexed probe on a gel.

Series [5] deals with T3, VapC I44A variant (Salmonella enterica serovar Typhimurium …, UniProt Q8ZM86 1-132, I44A).
T3 sequence: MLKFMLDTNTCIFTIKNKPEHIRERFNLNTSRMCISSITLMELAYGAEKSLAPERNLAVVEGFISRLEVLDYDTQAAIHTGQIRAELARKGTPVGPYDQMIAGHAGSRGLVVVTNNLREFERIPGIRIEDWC
The experiment in a line: native gel or EMSA.

Series [6] concerns the target T4, VapC A76S variant (Salmonella enterica serovar Typhimurium …, UniProt Q8ZM86 1-132, A76S).
T4 sequence: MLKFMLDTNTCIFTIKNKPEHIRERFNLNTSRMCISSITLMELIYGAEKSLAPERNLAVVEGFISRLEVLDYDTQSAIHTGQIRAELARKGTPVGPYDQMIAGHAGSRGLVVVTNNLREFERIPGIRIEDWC
The experiment in a line: native gel or EMSA.

For series [7], the target named is T5, VapB;VapC (Salmonella enterica serovar Typhimurium …, UniProt Q7CPV2;Q8ZM86 1-75;1-132, |).
T5 sequence 1: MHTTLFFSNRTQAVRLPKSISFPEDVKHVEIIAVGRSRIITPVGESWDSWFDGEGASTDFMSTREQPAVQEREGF
T5 sequence 2: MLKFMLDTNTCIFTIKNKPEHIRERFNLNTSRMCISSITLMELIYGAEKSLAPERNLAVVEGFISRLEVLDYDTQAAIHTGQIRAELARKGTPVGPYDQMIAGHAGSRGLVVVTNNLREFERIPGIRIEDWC
The series is described as follows: EMSA.

As for B1, in series [1], the “stoichiometry N” value came to 2.

B2: VapB antitoxin of Salmonella enterica serovar Typhimurium LT2 (natural protein, UniProt Q7CPV2 1-75, looked up)
chain: MHTTLFFSNRTQAVRLPKSISFPEDVKHVEIIAVGRSRIITPVGESWDSWFDGEGASTDFMSTREQPAVQEREGF
Consider B2, for which the binding result in series [2], in series [3], in series [4], in series [5] and in series [6] was “binds” in each case.

B3: vapO1, 36 bp (dsDNA)
DNA 1: CTCATAATGGATATACGCGTTGTATATCCAGAAAGG
DNA 2: CCTTTCTGGATATACAACGCGTATATCCATTATGAG
Regarding B3, the binding result in series [7] is recorded as “binds”.

A word on the stoichiometry N: it is the number of molecules, sites or subunits per partner or assembly.
